These results are taken from patent US7098309.

Assay [1] has as its target improved recombinant hepatitis B surface antigen (rHBsAg) refolded in GSH/GSSG redox buffer, with formalin, formulated on alum (Bulk Alum Product) (hepatitis B virus) (UniProt P03141). Description: AUZYME sandwich ELISA on alum-formulated rHBsAg; row label names the rHBsAg preparation (group A, with 1.0 mM GSH and 0.2 mM GSSG). For orientation: ELISA stands for enzyme-linked immunosorbent assay.

The target in assay [2] is recombinant hepatitis B surface antigen (rHBsAg) processed without redox buffer, with formalin, formulated on alum (Bulk Alum Product) (hepatitis B virus) (UniProt P03141). Description: AUZYME sandwich ELISA on alum-formulated rHBsAg; row label names the rHBsAg preparation (group A, no redox buffer).
The target is the same in assay [3]. The assay is described as follows: AUZYME sandwich ELISA; row label names the rHBsAg batch (no redox buffer, with formalin, glass tank).
Assay [4] deals with improved recombinant hepatitis B surface antigen (rHBsAg) refolded in GSH/GSSG redox buffer, formalin omitted, formulated on alum (hepatitis B virus) (UniProt P03141). Description: AUZYME sandwich ELISA; row label names the rHBsAg batch (redox buffer, no formalin, stainless steel tank).
For assay [5] the target is unchanged. Description: AUZYME sandwich ELISA; row label names the rHBsAg batch (redox buffer, no formalin, glass tank).
Assay [6] deals with plasma-derived Dane particles (hepatitis B virus). The assay is described as follows: AUZYME sandwich ELISA on plasma-derived Dane particles.
Assay [7] has as its target improved recombinant hepatitis B surface antigen (rHBsAg) refolded in GSH/GSSG redox buffer, with formalin, formulated on alum (Bulk Alum Product) (hepatitis B virus) (UniProt P03141). The assay is described as follows: AUZYME sandwich ELISA on alum-formulated rHBsAg; row label names the rHBsAg preparation (group C, with 1.0 mM GSH and 0.2 mM GSSG).
Assay [8] concerns the target recombinant hepatitis B surface antigen (rHBsAg) processed without redox buffer, with formalin, formulated on alum (Bulk Alum Product) (hepatitis B virus) (UniProt P03141). The assay is described as follows: AUZYME sandwich ELISA on alum-formulated rHBsAg; row label names the rHBsAg preparation (group C, no redox buffer).
The target in assay [9] is improved recombinant hepatitis B surface antigen (rHBsAg) refolded in GSH/GSSG redox buffer, with formalin, formulated on alum (Bulk Alum Product) (hepatitis B virus) (UniProt P03141). The assay is described as follows: AUZYME sandwich ELISA; row label names the rHBsAg batch (redox buffer, with formalin, glass tank).
Assay [10] has as its target recombinant hepatitis B surface antigen (rHBsAg) processed without redox buffer, with formalin, formulated on alum (Bulk Alum Product) (hepatitis B virus) (UniProt P03141). Description: AUZYME sandwich ELISA on alum-formulated rHBsAg; row label names the rHBsAg preparation (group B, no redox buffer).
In assay [11] the target is improved recombinant hepatitis B surface antigen (rHBsAg) refolded in GSH/GSSG redox buffer, with formalin, formulated on alum (Bulk Alum Product) (hepatitis B virus) (UniProt P03141). The assay is described as follows: AUZYME sandwich ELISA on alum-formulated rHBsAg; row label names the rHBsAg preparation (group B, with 1.0 mM GSH and 0.2 mM GSSG).

Consider “AUZYME monoclonal enzyme immunoassay antibodies: mouse monoclonal antibodies to hepatitis B surface antigen coated on beads, and mouse monoclonal Anti-HBsAg peroxidase conjugate (antibody)”, for which the IVRP (in vitro relative potency) (relative to reference rHBsAg = 1.0) in assay [1] was determined as 3.56; in assay [2] it was 2.09; in assay [3], 2.51; in assay [4], 4.3; in assay [5], 4.62; in assay [7], 2.47. Besides, the IVRP (in vitro relative potency) (relative to reference rHBsAg = 1.0) in assay [8] stood at 1.44; in [9] it was 4.32; in assay [10] it was 1.69; in [11], 2.7. Further, the ELISA response (in vitro relative potency scale) (relative to reference rHBsAg = 1.0) in [6] turned out to be 5.
